Maximum fluorescence signal value, HEK293/OX40/NF-kb luciferase reporter, EC50 and Maximum MFI data for 1 substance are collected here from patent publication US20230295324A1.

The target in experiment [1] is human OX40 on cells (CHO-K1/hu OX40) (human) (UniProt P43489). As to the kind of experiment: cell-based or functional assay.
Experiment [2] shares this target. As to the kind of experiment: FACS, CHO-K1/hu OX40 cells. For orientation: Flow cytometry measures light scatter and fluorescence of single cells or particles in a stream.

Sequence of human OX40 on cells (CHO-K1/hu OX40) (human) (P43489 29-277): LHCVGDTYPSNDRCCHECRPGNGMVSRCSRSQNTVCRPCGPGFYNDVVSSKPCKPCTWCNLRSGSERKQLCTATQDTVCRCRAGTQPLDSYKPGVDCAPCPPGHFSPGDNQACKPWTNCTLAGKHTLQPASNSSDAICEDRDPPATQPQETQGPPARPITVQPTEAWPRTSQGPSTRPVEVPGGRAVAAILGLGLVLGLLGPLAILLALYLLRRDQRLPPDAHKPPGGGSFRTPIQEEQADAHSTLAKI

With hIgG1 (antibody), the Maximum fluorescence signal value, HEK293/OX40/NF-kb luciferase reporter in experiment [1] is 2530 luminescence. Also, in experiment [2], the 50% effective concentration (EC50) (as a rule, the concentration that produces a half-maximal response) came to 71 nM and the Maximum MFI was 6900 MFI.
